These results are taken from paper PMC8930625 (Journal of inorganic biochemistry, 2022).

To fix the notation:
B2: Methyl-Coenzyme M Reductase (MCR) chain B (natural protein, Methanothermobacter marburgensis, UniProt P11560 1-443, looked up)
chain: MAKFEDKVDLYDDRGNLVEEQVPLEALSPLRNPAIKSIVQGIKRTVAVNLEGIENALKTAKVGGPACKIMGRELDLDIVGNAESIAAAAKEMIQVTEDDDTNVELLGGGKRALVQVPSARFDVAAEYSAAPLVTATAFVQAIINEFDVSMYDANMVKAAVLGRYPQSVEYMGANIATMLDIPQKLEGPGYALRNIMVNHVVAATLKNTLQAAALSTILEQTAMFEMGDAVGAFERMHLLGLAYQGMNADNLVFDLVKANGKEGTVGSVIADLVERALEDGVIKVEKELTDYKVYGTDDLAMWNAYAAAGLMAATMVNQGAARAAQGVSSTLLYYNDLIEFETGLPSVDFGKVEGTAVGFSFFSHSIYGGGGPGIFNGNHIVTRHSKGFAIPCVAAAMALDAGTQMFSPEATSGLIKEVFSQVDEFREPLKYVVEAAAEIKNEI

Common to all, as to experiment: crystal structure
For series [1], the target named is T1, Methyl-Coenzyme M Reductase (MCR) chain A (Methanothermobacter marburgensis, UniProt P11558 1-550).
T1 sequence (looked up): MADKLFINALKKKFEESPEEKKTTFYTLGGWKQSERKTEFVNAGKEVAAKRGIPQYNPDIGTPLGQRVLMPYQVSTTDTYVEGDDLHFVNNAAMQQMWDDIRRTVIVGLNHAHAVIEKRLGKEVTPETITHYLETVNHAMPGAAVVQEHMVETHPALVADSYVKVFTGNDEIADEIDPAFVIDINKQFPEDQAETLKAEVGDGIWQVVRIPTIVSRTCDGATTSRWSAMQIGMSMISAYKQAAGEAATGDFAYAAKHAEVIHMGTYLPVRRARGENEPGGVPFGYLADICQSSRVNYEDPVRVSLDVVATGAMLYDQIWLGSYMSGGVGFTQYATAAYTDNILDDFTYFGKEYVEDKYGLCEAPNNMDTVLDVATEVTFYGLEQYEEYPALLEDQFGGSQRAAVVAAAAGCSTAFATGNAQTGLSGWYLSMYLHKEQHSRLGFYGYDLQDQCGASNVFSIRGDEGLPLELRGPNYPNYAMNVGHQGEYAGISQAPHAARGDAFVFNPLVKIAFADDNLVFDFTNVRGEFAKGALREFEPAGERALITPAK

Series [2] concerns the target B2.
The series “crystal structure” concerns the molecule itself.

B1: Methyl-Coenzyme M Reductase (MCR) chain C (natural protein, Methanothermobacter marburgensis, UniProt P11562 1-249, looked up)
chain: MAQYYPGTTKVAQNRRNFCNPEYELEKLREISDEDVVKILGHRAPGEEYPSVHPPLEEMDEPEDAIREMVEPIDGAKAGDRVRYIQFTDSMYFAPAQPYVRSRAYLCRYRGADAGTLSGRQIIETRERDLEKISKELLETEFFDPARSGVRGKSVHGHSLRLDEDGMMFDMLRRQIYNKDTGRVEMVKNQIGDELDEPVDLGEPLDEETLMEKTTIYRVDGEAYRDDVEAVEIMQRIHVLRSQGGFNLE
Take B1: the binding result in series [1] and in series [2] was “binds” each time. Consider B2, for which the binding result in series [1] is recorded as “binds”.

B3: Methyl-Coenzyme M Reductase (MCR) heterotrimer of chains A, B and C, MCRred1-silent Ni(II) form (complex, Methanothermobacter marburgensis)
chain 1: MADKLFINALKKKFEESPEEKKTTFYTLGGWKQSERKTEFVNAGKEVAAKRGIPQYNPDIGTPLGQRVLMPYQVSTTDTYVEGDDLHFVNNAAMQQMWDDIRRTVIVGLNHAHAVIEKRLGKEVTPETITHYLETVNHAMPGAAVVQEHMVETHPALVADSYVKVFTGNDEIADEIDPAFVIDINKQFPEDQAETLKAEVGDGIWQVVRIPTIVSRTCDGATTSRWSAMQIGMSMISAYKQAAGEAATGDFAYAAKHAEVIHMGTYLPVRRARGENEPGGVPFGYLADICQSSRVNYEDPVRVSLDVVATGAMLYDQIWLGSYMSGGVGFTQYATAAYTDNILDDFTYFGKEYVEDKYGLCEAPNNMDTVLDVATEVTFYGLEQYEEYPALLEDQFGGSQRAAVVAAAAGCSTAFATGNAQTGLSGWYLSMYLHKEQHSRLGFYGYDLQDQCGASNVFSIRGDEGLPLELRGPNYPNYAMNVGHQGEYAGISQAPHAARGDAFVFNPLVKIAFADDNLVFDFTNVRGEFAKGALREFEPAGERALITPAK
chain 2: MAKFEDKVDLYDDRGNLVEEQVPLEALSPLRNPAIKSIVQGIKRTVAVNLEGIENALKTAKVGGPACKIMGRELDLDIVGNAESIAAAAKEMIQVTEDDDTNVELLGGGKRALVQVPSARFDVAAEYSAAPLVTATAFVQAIINEFDVSMYDANMVKAAVLGRYPQSVEYMGANIATMLDIPQKLEGPGYALRNIMVNHVVAATLKNTLQAAALSTILEQTAMFEMGDAVGAFERMHLLGLAYQGMNADNLVFDLVKANGKEGTVGSVIADLVERALEDGVIKVEKELTDYKVYGTDDLAMWNAYAAAGLMAATMVNQGAARAAQGVSSTLLYYNDLIEFETGLPSVDFGKVEGTAVGFSFFSHSIYGGGGPGIFNGNHIVTRHSKGFAIPCVAAAMALDAGTQMFSPEATSGLIKEVFSQVDEFREPLKYVVEAAAEIKNEI
chain 3: MAQYYPGTTKVAQNRRNFCNPEYELEKLREISDEDVVKILGHRAPGEEYPSVHPPLEEMDEPEDAIREMVEPIDGAKAGDRVRYIQFTDSMYFAPAQPYVRSRAYLCRYRGADAGTLSGRQIIETRERDLEKISKELLETEFFDPARSGVRGKSVHGHSLRLDEDGMMFDMLRRQIYNKDTGRVEMVKNQIGDELDEPVDLGEPLDEETLMEKTTIYRVDGEAYRDDVEAVEIMQRIHVLRSQGGFNLE
On to B3, for which the stoichiometry N (in general, the number of molecules, sites or subunits per partner or assembly) in the series “crystal structure” was 2.
